Data on four molecules can be found in patent US20120100139A1 (APTEVO RESEARCH AND DEVELOPMENT, published 2012).

Test [1] concerns the target CD86-mIgG (Ancell, Inc) (UniProt P42081). Description: SPR (BIAcore T100), CD86-mIgG immobilized on CM5; second site. (SPR reads the build-up and loss of mass on a sensor chip optically.)
The target is the same in test [2]. Description: SPR (BIAcore T100), CD86-mIgG immobilized on CM5; first site.
Test [3] has the same target. In words: SPR (BIAcore T100), CD86-mIgG immobilized on CM5; steady-state equilibrium fit.
The target of test [4] is T1, CD80-mIg (Ancell Catalog #510-020) (UniProt P33681 35-242).
T1 construct: Bought reagent; also called CD80-mIgG; sCD80
T1 sequence (looked up): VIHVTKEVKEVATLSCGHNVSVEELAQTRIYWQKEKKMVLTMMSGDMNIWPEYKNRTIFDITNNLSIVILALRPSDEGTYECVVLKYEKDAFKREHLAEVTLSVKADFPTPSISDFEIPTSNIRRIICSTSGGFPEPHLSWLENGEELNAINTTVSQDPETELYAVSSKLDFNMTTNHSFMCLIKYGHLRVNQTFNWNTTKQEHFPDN
Description: SPR (BIAcore T100), CD80-mIgG immobilized on CM5; bivalent analyte model, second site. The procedure: (§1) Surface plasmon resonance (SPR) measurements were performed on a BIAcore™ T100 SPR (Pharmacia Biotech AB, Uppsala) using HBS-EP+ (GE Healthcare) as a running buffer. […] CTLA4-containing constructs were injected for 150 seconds, at a flow rate of 10 μl/min, in a series of concentrations from 5 nM to 1 μM. Dissociation was monitored for 600 seconds, and the surface was regenerated by injecting 50 mM sodium citrate, 500 mM sodium chloride, pH 4.0, for 60 seconds. […] Data were analyzed using BiaEvaluation for the T100 software (version 2.0.1, GE Healthcare).

Test [5] concerns the target T2, CD86-mIgG (Ancell, Inc) (UniProt P42081 24-247, limits assumed).
T2 construct: Bought reagent
T2 sequence (looked up): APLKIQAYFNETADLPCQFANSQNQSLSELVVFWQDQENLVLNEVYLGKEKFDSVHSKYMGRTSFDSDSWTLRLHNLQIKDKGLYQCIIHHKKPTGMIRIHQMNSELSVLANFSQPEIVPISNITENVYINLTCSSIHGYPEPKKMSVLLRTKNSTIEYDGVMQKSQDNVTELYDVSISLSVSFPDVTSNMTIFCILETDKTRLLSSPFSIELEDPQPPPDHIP
Description: SPR (BIAcore T100), CD86-mIgG immobilized on CM5; steady-state equilibrium fit. The procedure:
(§2) SPR measurements were performed on a BIAcore™ T100 SPR (Pharmacia Biotech AB, Uppsala) using HBS-EP+ (GE Healthcare) as a running buffer. […] CTLA4-containing constructs were injected for 150 seconds, at a flow rate of 10 μl/min, in a series of concentrations from 4 nM to 10 μM. Dissociation was monitored for 600 seconds, and the surface was either regenerated by injecting 50 mM sodium citrate, 500 mM sodium chloride, pH 5.0, for 60 seconds (wild type CTLA4) or 10 mM glycine, pH 1.7 (L104E A29Y CTLA4). […] Data were analyzed using BiaEvaluation for the T100 software (version 2.0.1, GE Healthcare).
SPR measurements were performed as listed above, with the following exceptions: HBS-P+ (GE Healthcare) was used as a running buffer; dissociation was monitored for 1200 seconds; and the surface was regenerated by injecting 10 mM glycine, pH 1.7, for 60 seconds.

Test [6] addresses T1, CD80-mIg (Ancell Catalog #510-020). Description: SPR (BIAcore T100), CD80-mIgG immobilized on CM5; steady-state equilibrium fit. How it is done: as §1
The target in test [7] is T3, Murine CD86-mIgG (R&D Systems, Inc) (murine, UniProt P42082 24-244, limits assumed).
T3 construct: also called muCD86
T3 sequence (looked up): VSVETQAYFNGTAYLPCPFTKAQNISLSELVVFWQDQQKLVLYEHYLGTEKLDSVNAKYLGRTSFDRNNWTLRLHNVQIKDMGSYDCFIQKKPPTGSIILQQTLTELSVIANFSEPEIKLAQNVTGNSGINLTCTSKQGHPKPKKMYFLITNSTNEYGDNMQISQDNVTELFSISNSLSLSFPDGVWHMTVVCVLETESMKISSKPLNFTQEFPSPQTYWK
In words: SPR (BIAcore T100), murine CD86-mIgG immobilized on CM5; bivalent analyte model, first site. How it is done: (§3) SPR measurements were performed on a BIAcore™ T100 SPR (Pharmacia Biotech AB, Uppsala) using HBS-EP+ (GE Healthcare) as a running buffer. Murine CD86-mIgG (25 μg/mL in 10 mM sodium acetate, pH 4.0, R&D Systems, Inc) was directly immobilized onto a CM5 chip using standard amine coupling chemistry (Biacore Amine Coupling Kit, GE Healthcare), with final immobilization levels of 150, 493, and 746 Ru. CTLA4-containing constructs were injected for 150 seconds, at a flow rate of 10 μl/min, in a series of concentrations from 4 nM to 8 μM. Dissociation was monitored for 600 seconds (CTLA4 constructs) or 1200 seconds (GL1 constructs), and the surface was regenerated by injecting 10 mM glycine, pH 1.7, for 60 seconds. […] Data were analyzed using BiaEvaluation for the T100 software (version 2.0.1, GE Healthcare).

Test [8] has as its target T3, Murine CD86-mIgG (R&D Systems, Inc). Description: SPR (BIAcore T100), murine CD86-mIgG immobilized on CM5; bivalent analyte model, second site. The procedure:
as §3

Test [9] has as its target T2, CD86-mIgG (Ancell, Inc). In words: SPR (BIAcore T100), CD86-mIgG immobilized on CM5; bivalent analyte model, first site. The procedure: as §2
Test [10] concerns the target T3, Murine CD86-mIgG (R&D Systems, Inc). Description: SPR (BIAcore T100), murine CD86-mIgG immobilized on CM5; steady-state equilibrium, multiple Rmax fit. The procedure:
as §3

Test [11] addresses T1, CD80-mIg (Ancell Catalog #510-020). In words: SPR (BIAcore T100), CD80-mIgG immobilized on CM5; bivalent analyte model, first site. How it is done:
as §1

Test [12] concerns the target T4, PD1 ectodomain fused to a C-terminal AviTag, biotinylated (biotinylated on the AviTag with the BirA enzyme).
T4 construct: also called biotinylated PD1
T4 chain: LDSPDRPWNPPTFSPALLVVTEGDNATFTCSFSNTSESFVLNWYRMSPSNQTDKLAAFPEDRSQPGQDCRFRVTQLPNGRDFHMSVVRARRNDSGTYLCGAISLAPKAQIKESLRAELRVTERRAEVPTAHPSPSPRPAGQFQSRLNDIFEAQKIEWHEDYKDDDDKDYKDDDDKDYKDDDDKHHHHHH
In words: SPR (BIAcore T100), biotinylated PD1 captured on neutravidin; bivalent analyte model, first site. The procedure:
(§4) SPR measurements were performed on a BIAcore™ T100 SPR (Pharmacia Biotech AB, Uppsala) using HBS-P+ (GE Healthcare) as a running buffer. […] PDL1/2-containing constructs were injected for 120 seconds, at a flow rate of 30 μl/min, in a series of concentrations from 6 nM to 2 μM. Dissociation was monitored for 1200 seconds, and the surface was regenerated by injecting 50 mM NaOH, 1M NaCl for 30 seconds.
(§5) Data were analyzed using BiaEvaluation for the T100 software (version 2.0.1, GE Healthcare).

Test [13] concerns the target T4, PD1 ectodomain fused to a C-terminal …. Description: SPR (BIAcore T100), biotinylated PD1 captured on neutravidin; steady-state equilibrium fit. How it is done: as §4, §5

Take muIL 10-Ig: in the test with CD86-mIgG (Ancell, Inc) [1], the Second Site ka came out at 0.0203 s⁻¹ and the Second Site kd turned out to be 0.0722 s⁻¹. In the test with CD86-mIgG (Ancell, Inc) [2], the koff (in general, the rate constant with which the complex falls apart) was 0.00018 s⁻¹ and the kon (as a rule, a measure of how fast the partners come together) was found to be 94100 M⁻¹ s⁻¹. Moreover, the Kd (commonly a measure of binding affinity in units of concentration) in the test with CD86-mIgG (Ancell, Inc) [3] was determined as 50.6 nM.

B1: CTLA4-Fc fusion containing the L104E A29Y mutations, analogous to belatacept (Fc fusion)
chain: MHVAQPAVVLASSRGIASFVCEYASPGKYTEVRVTVLRQADSQVTEVCAATYMMGNELTFLDDSICTGTSSGNQVNLTIQGLRAMDTGLYICKVELMYPPPYYEGIGNGTQIYVIDPEPCPDSDLEPKSSDKTHTCPPCPAPEAAGAPSVFLFPPKPKDTLMISRTPEVTCVVVDVSHEDPEVKFNWYVDGVEVHNAKTKPREEQYNSTYRVVSVLTVLHQDWLNGKAYACAVSNKALPAPIEKTISKAKGQPREPQVYTLPPSRDELTKNQVSLTCLVKGFYPSDIAVEWESNGQPENNYKTTPPVLDSDGSFFLYSKLTVDKSRWQQGNVFSCSVMHEALHNHYTQKSLSLSPG
notes: the mutations are in the entry
Take B1: the figures for the “Second Site ka” value in test [4] and in [8] were 0.00102 s⁻¹ and 0.0728 s⁻¹, respectively. For the same molecule, the “Second Site kd” value in test [4] was found to be 0.00332 s⁻¹; in test [8] it was 0.168 s⁻¹. Moreover, the Kd was found to be 772 nM with CD86-mIgG (Ancell, Inc) [5]; 13.3 nM in [6]; 920 nM in test [10]. The koff in test [7] was 0.0787 s⁻¹; with CD86-mIgG (Ancell, Inc) [9], 0.0102 s⁻¹; in test [11], 0.00373 s⁻¹. Also, the kon in test [7] worked out at 27800 M⁻¹ s⁻¹; with CD86-mIgG (Ancell, Inc) [9], 84700 M⁻¹ s⁻¹; in test [11], 155000 M⁻¹ s⁻¹.

B2: xceptor including a CTLA4 ectodomain with the L104E A29Y mutations and an IL10 domain (Fc fusion)
chain: MHVAQPAVVLASSRGIASFVCEYASPGKYTEVRVTVLRQADSQVTEVCAATYMMGNELTFLDDSICTGTSSGNQVNLTIQGLRAMDTGLYICKVELMYPPPYYEGIGNGTQIYVIDPEPCPDSDLEPKSSDKTHTCPPCPAPEAAGAPSVFLFPPKPKDTLMISRTPEVTCVVVDVSHEDPEVKFNWYVDGVEVHNAKTKPREEQYNSTYRVVSVLTVLHQDWLNGKAYACAVSNKALPAPIEKTISKAKGQPREPQVYTLPPSRDELTKNQVSLTCLVKGFYPSDIAVEWESNGQPENNYKTTPPVLDSDGSFFLYSKLTVDKSRWQQGNVFSCSVMHEALHNHYTQKSLSLSPGQRHNNSSLNTGTQMAGHSPNSSPGQGTQSENSCTHFPGNLPNMLRDLRDAFSRVKTFFQMKDQLDNLLLKESLLEDFKGYLGCQALSEMIQFYLEEVMPQAENQDPDAKAHVNSLGENLKTLRLRLRRCHRFLPCENKSKAVEQVKNAFNKLQEKGIYKAMSEFDIFINYIEAYMTMKIRN
notes: as for B1
As for B2, the “Second Site ka” value in test [4] stood at 0.00406 s⁻¹; in test [8], 0.00026 s⁻¹. The figures for the “Second Site kd” value in test [4] and in [8] were 0.00706 s⁻¹ and 0.00193 s⁻¹, respectively. The Kd in the test with CD86-mIgG (Ancell, Inc) [5] was determined as 670 nM; in [6], 19.1 nM; in [10] it was 870 nM. Moreover, the koff in test [7] worked out at 0.0418 s⁻¹; with CD86-mIgG (Ancell, Inc) [9] it was 0.0091 s⁻¹; in test [11], 0.00235 s⁻¹. Moreover, the kon in test [7] was 32100 M⁻¹ s⁻¹; with CD86-mIgG (Ancell, Inc) [9], 45100 M⁻¹ s⁻¹; in test [11], 90800 M⁻¹ s⁻¹.

B3: PDL2-Fc (Fc fusion)
chain: LFTVTVPKELYIIEHGSNVTLECNFDTGSHVNLGAITASLQKVENDTSPHRERATLLEEQLPLGKASFHIPQVQVRDEGQYQCIIIYGVAWDYKYLTLKVKASYRKINTHILKVPETDEVELTCQATGYPLAEVSWPNVSVPANTSHSRTPEGLYQVTSVLRLKPPPGRNFSCVFWNTHVRELTLASIDLQSQMEPRTHPTLEPKSSDKTHTCPPCPAPEAAGAPSVFLFPPKPKDTLMISRTPEVTCVVVDVSHEDPEVKFNWYVDGVEVHNAKTKPREEQYNSTYRVVSVLTVLHQDWLNGKAYACAVSNKALPAPIEKTISKAKGQPREPQVYTLPPSRDELTKNQVSLTCLVKGFYPSDIAVEWESNGQPENNYKTTPPVLDSDGSFFLYSKLTVDKSRWQQGNVFSCSVMHEALHNHYTQKSLSLSPG
As for B3, in test [12], the koff worked out at 0.00724 s⁻¹ and the kon came out at 165000 M⁻¹ s⁻¹. Also, the affinity in [13], expressed as Kd, was 42 nM.
